Data as given in the supplement of paper PMC10201428.
± gives the standard deviation of the averaged measurements.

What was measured:
[1] = test system: VchCAST RNA-guided transposition machinery (E. coli BL21(DE3) host, lacZ target); experiment: relative integration efficiency (T-RL orientation) vs wild-type transposon end (log2 (normalized fold change)); transposon end mutated: right end (5 bp flank + 75 bp right end); higher = more efficient transposition
In short: (§1)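 Relative integration efficiency is a fold change of output over input barcode abundance, normalised to reference barcodes and log-transformed. Input plasmids and genomic integration junctions were PCR-amplified and Illumina-sequenced from E. coli BL21(DE3) co-transformed with a T7-driven effector plasmid and pUC57 donor pools of 1549 left-end or 1849 right-end transposon variants. Plating was done with 0.1 mM IPTG at 37°C for 18 h, with two biological output replicates and four reference barcodes.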

[2] = test system: VchCAST RNA-guided transposition machinery (E. coli BL21(DE3) host, lacZ target); experiment: relative integration efficiency (T-LR orientation) vs wild-type transposon end (log2 (normalized fold change)); transposon end mutated: right end (5 bp flank + 75 bp right end); higher = more efficient transposition
In short: as §1

ACATTTGTTGATACAACCATAAAATGATTTAAACACCCATAAATTGATAATTATCACACCCATAAATTGATATTGCCTCTGATCATAGTCAGACCAACATTGCTACGACCCGTATTCGCACCGACAC
relative integration efficiency (log2) [1]: -0.3814 ± 0.0024
relative integration efficiency (log2) [2]: -0.234 ± 0.29

ACATTTGTTGATACAACCATAAAATGATTTAATCACCCATAAATTGATTTAATTCACACCCATAAATTGATTAACGCTCTGATCATAGTCAGACCAACATTGCTACGACCCGTATTCGCACCGACAC
relative integration efficiency (log2) [1]: -1.13 ± 0.18
relative integration efficiency (log2) [2]: -0.00841 ± 0.34

ACATTTGTTGATACAACCATAAAATGATTTTTACACCCATAAATTGATAATTATCACACCCATAAATTGATATTGCCTCTGATCATAGTCAGACCAACATTGCTACGACCCGTATTCGCACCGACAC
relative integration efficiency (log2) [1]: -0.483 ± 0.081
relative integration efficiency (log2) [2]: 0.183 ± 0.26

ACATTTGTTGATACAACCATAAAATGCGAATTACACCCATAAATTGATAATTATCACACCCATAAATTGATATTGCCTCTGATCATAGTCAGACCAACATTGCTACGACCCGTATTCGCACCGACAC
relative integration efficiency (log2) [1]: -0.945 ± 0.22
relative integration efficiency (log2) [2]: -0.35 ± 0.095

ACATTTGTTGATACAACCATAAAATGCGCCGGCACAAACGCCCGGTCGCCGGCGACACAAACGCCCGGTCGCGGTAAGAGGATCATAGTCAGACCAACATTGCTACGACCCGTATTCGCACCGACAC
relative integration efficiency (log2) [1]: -3.75 ± 0.078
relative integration efficiency (log2) [2]: -0.733 ± 0.15

ACATTTGTTGATACAACCATAAAATGCGCCGGCCACCCATAAATTGCGCCGGCTCACACCCATAAATTGCGCGGTACTCTGATCATAGTCAGACCAACATTGCTACGACCCGTATTCGCACCGACAC
relative integration efficiency (log2) [1]: -5.16 ± 0.24
relative integration efficiency (log2) [2]: -3.06 ± 0.22

ACATTTGTTGATACAACCATAAAATGCGCCTTACACCCATAAATTGATAATTATCACACCCATAAATTGATATTGCCTCTGATCATAGTCAGACCAACATTGCTACGACCCGTATTCGCACCGACAC
relative integration efficiency (log2) [1]: -1.4 ± 0.083
relative integration efficiency (log2) [2]: -1.01 ± 0.31

ACATTTGTTGATACAACCATAAAATGCTAATTACACCCATAAATTGCTAATTATCACACCCATAAATTGCTATTGCCTCTGATCATAGTCAGACCAACATTGCTACGACCCGTATTCGCACCGACAC
relative integration efficiency (log2) [1]: -1.55 ± 0.13
relative integration efficiency (log2) [2]: -0.567 ± 0.21

ACATTTGTTGATACAACCATAAAATGGTAATTACACCCATACATTGATAATTATCACACCCAATTTAACTATAACGCTCTGATCATAGTCAGACCAACATTGCTACGACCCGTATTCGCACCGACAC
relative integration efficiency (log2) [1]: -2.58 ± 0.27
relative integration efficiency (log2) [2]: 0.71 ± 0.05

ACATTTGTTGATACAACCATAAAATGGTAATTACACCCCTAAATTGATAATTATCACACCCAATTTAACTATAACGCTCTGATCATAGTCAGACCAACATTGCTACGACCCGTATTCGCACCGACAC
relative integration efficiency (log2) [1]: -3.07 ± 0.34
relative integration efficiency (log2) [2]: 0.104 ± 0.26

ACATTTGTTGATACAACCATAAAATGGTAATTACACCCCTACATTGATAATTATCACACCCAATTTAACTATAACGCTCTGATCATAGTCAGACCAACATTGCTACGACCCGTATTCGCACCGACAC
relative integration efficiency (log2) [1]: -3.67 ± 0.066
relative integration efficiency (log2) [2]: -0.856 ± 0.38

ACATTTGTTGATACAACCATAAAATGGTAATTCCACCCATAAATTGATAATTATCACACCCAATTTAACTATAACGCTCTGATCATAGTCAGACCAACATTGCTACGACCCGTATTCGCACCGACAC
relative integration efficiency (log2) [1]: -1.45 ± 0.25
relative integration efficiency (log2) [2]: 2.06 ± 0.044

ACATTTGTTGATACAACCATAAAATGGTAATTCCACCCATACATTGATAATTATCACACCCAATTTAACTATAACGCTCTGATCATAGTCAGACCAACATTGCTACGACCCGTATTCGCACCGACAC
relative integration efficiency (log2) [1]: -3.15 ± 0.33
relative integration efficiency (log2) [2]: 0.391 ± 0.15

ACATTTGTTGATACAACCATAAAATGGTAATTCCACCCCTAAATTGATAATTATCACACCCAATTTAACTATAACGCTCTGATCATAGTCAGACCAACATTGCTACGACCCGTATTCGCACCGACAC
relative integration efficiency (log2) [1]: -3.6 ± 0.27
relative integration efficiency (log2) [2]: -0.518 ± 0.25

ACATTTGTTGATACAACCATAAAATGGTAATTCCACCCCTACATTGATAATTATCACACCCAATTTAACTATAACGCTCTGATCATAGTCAGACCAACATTGCTACGACCCGTATTCGCACCGACAC
relative integration efficiency (log2) [1]: -3.92 ± 0.41
relative integration efficiency (log2) [2]: -0.604 ± 0.45

ACATTTGTTGATACAACCATAAAATGTAAATTACACCCATAAATTGATAATTATCACACCCATAAATTGATATTGCCTCTGATCATAGTCAGACCAACATTGCTACGACCCGTATTCGCACCGACAC
relative integration efficiency (log2) [1]: -0.732 ± 0.084
relative integration efficiency (log2) [2]: -0.454 ± 0.18

ACATTTGTTGATACAACCATAAAATGTATTAATCACCCATAAATTGTATTAATTCACACCCATAAATTGTATAACGCTCTGATCATAGTCAGACCAACATTGCTACGACCCGTATTCGCACCGACAC
relative integration efficiency (log2) [1]: -4.24 ± 0.14
relative integration efficiency (log2) [2]: -2.39 ± 0.35

ACATTTGTTGATACAACCATAAAATGTATTTTACACCCATAAATTGATAATTATCACACCCATAAATTGATATTGCCTCTGATCATAGTCAGACCAACATTGCTACGACCCGTATTCGCACCGACAC
relative integration efficiency (log2) [1]: -0.938 ± 0.035
relative integration efficiency (log2) [2]: -0.626 ± 0.31

ACATTTGTTGATACAACCATAAAATGTTAATTACACCCATAAATTGTTAATTATCACACCCATAAATTGTTATTGCCTCTGATCATAGTCAGACCAACATTGCTACGACCCGTATTCGCACCGACAC
relative integration efficiency (log2) [1]: -2.33 ± 0.29
relative integration efficiency (log2) [2]: -0.437 ± 0.34

ACATTTGTTGATACAACCATAAAATTATAATTACACCCATAAATTTATAATTATCACACCCATAAATTTATATTGCCTCTGATCATAGTCAGACCAACATTGCTACGACCCGTATTCGCACCGACAC
relative integration efficiency (log2) [1]: -1.23 ± 0.3
relative integration efficiency (log2) [2]: 0.398 ± 0.67

ACATTTGTTGATACAACCATAAAATTATTATTACACCCATTAATTGATAATTATCACACCCAATTTAACTATAACGCTCTGATCATAGTCAGACCAACATTGCTACGACCCGTATTCGCACCGACAC
relative integration efficiency (log2) [1]: -2.35 ± 0.18
relative integration efficiency (log2) [2]: 1.15 ± 0.09

ACATTTGTTGATACAACCATAAAATTCGCATTACACCCATAAATTGATAATTATCACACCCATAAATTGATATTGCCTCTGATCATAGTCAGACCAACATTGCTACGACCCGTATTCGCACCGACAC
relative integration efficiency (log2) [1]: -2.95 ± 0.25
relative integration efficiency (log2) [2]: -2.45 ± 0.2

ACATTTGTTGATACAACCATAAAATTCGCCGGCACAAACGCCCGGTCGCCGGCGACACAAACGCCCGGTCGCGGTAAGAGGATCATAGTCAGACCAACATTGCTACGACCCGTATTCGCACCGACAC
relative integration efficiency (log2) [1]: -4.45 ± 0.73
relative integration efficiency (log2) [2]: -0.949 ± 0.46

ACATTTGTTGATACAACCATAAAATTCTAATTACACCCATAAATTGATAATTATCACACCCATAAATTGATATTGCCTCTGATCATAGTCAGACCAACATTGCTACGACCCGTATTCGCACCGACAC
relative integration efficiency (log2) [1]: -1.85 ± 0.18
relative integration efficiency (log2) [2]: -1.38 ± 0.16

ACATTTGTTGATACAACCATAAACGGATAATTACACCCATAAATTGATAATTATCACACCCATAAATTGATATTGCCTCTGATCATAGTCAGACCAACATTGCTACGACCCGTATTCGCACCGACAC
relative integration efficiency (log2) [1]: -0.642 ± 0.01
relative integration efficiency (log2) [2]: -0.722 ± 0.72

ACATTTGTTGATACAACCATAAACGTCTAATTACACCCATAAATTGATAATTATCACACCCATAAATTGATATTGCCTCTGATCATAGTCAGACCAACATTGCTACGACCCGTATTCGCACCGACAC
relative integration efficiency (log2) [1]: -2.72 ± 0.083
relative integration efficiency (log2) [2]: -2.25 ± 0.11

ACATTTGTTGATACAACCATAAACTGATAATTACACCCATAAAGTGATAATTATCACACCCATAAAGTGATATTGCCTCTGATCATAGTCAGACCAACATTGCTACGACCCGTATTCGCACCGACAC
relative integration efficiency (log2) [1]: 0.368 ± 0.095
relative integration efficiency (log2) [2]: 0.264 ± 0.12

ACATTTGTTGATACAACCATAAAGTGATATTTACAACCATAAAATGATAATTATCACAACCATAAAATGATAATTACTCTGATCATAGTCAGACCAACATTGCTACGACCCGTATTCGCACCGACAC
relative integration efficiency (log2) [1]: 0.174 ± 0.1
relative integration efficiency (log2) [2]: 0.0497 ± 0.074

ACATTTGTTGATACAACCATAAAGTGATATTTACAACCATAAAATGATAATTATCACAACCATAAAGTGATATTTACTCTGATCATAGTCAGACCAACATTGCTACGACCCGTATTCGCACCGACAC
relative integration efficiency (log2) [1]: 0.0289 ± 0.14
relative integration efficiency (log2) [2]: 0.103 ± 0.36

ACATTTGTTGATACAACCATAAAGTGATATTTACAACCATAAAATGATAATTATCACAACCATAAGTTGATATTTTCTCTGATCATAGTCAGACCAACATTGCTACGACCCGTATTCGCACCGACAC
relative integration efficiency (log2) [1]: 0.113 ± 0.034
relative integration efficiency (log2) [2]: -0.0726 ± 0.055

ACATTTGTTGATACAACCATAAAGTGATATTTACAACCATAAAATGATAATTATCACAACCATATATTGATATCTCCTCTGATCATAGTCAGACCAACATTGCTACGACCCGTATTCGCACCGACAC
relative integration efficiency (log2) [1]: -0.261 ± 0.13
relative integration efficiency (log2) [2]: -0.163 ± 0.73

ACATTTGTTGATACAACCATAAAGTGATATTTACAACCATAAAATGATAATTATCACACCCATAAATTGATAATTACTCTGATCATAGTCAGACCAACATTGCTACGACCCGTATTCGCACCGACAC
relative integration efficiency (log2) [1]: 0.346 ± 0.076
relative integration efficiency (log2) [2]: 0.307 ± 0.068

ACATTTGTTGATACAACCATAAAGTGATATTTACAACCATAAAATGATAATTATCACACCCATAAATTGATATTGCCTCTGATCATAGTCAGACCAACATTGCTACGACCCGTATTCGCACCGACAC
relative integration efficiency (log2) [1]: -0.00564 ± 0.04
relative integration efficiency (log2) [2]: -0.097 ± 0.68

ACATTTGTTGATACAACCATAAAGTGATATTTACAACCATAAAATGATAATTATCAGTGGGTATTTAACTATAACGCTCTGATCATAGTCAGACCAACATTGCTACGACCCGTATTCGCACCGACAC
relative integration efficiency (log2) [1]: -0.714 ± 0.27
relative integration efficiency (log2) [2]: 2.86 ± 0.12

ACATTTGTTGATACAACCATAAAGTGATATTTACAACCATAAAGTGATATTTATCACAACCATAAAATGATAATTACTCTGATCATAGTCAGACCAACATTGCTACGACCCGTATTCGCACCGACAC
relative integration efficiency (log2) [1]: 0.0579 ± 0.16
relative integration efficiency (log2) [2]: 0.11 ± 0.34
